B1: glycerol-3-phosphate dehydrogenase Saci_2032, N-terminally His-tagged (enzyme, Sulfolobus acidocaldarius DSM 639, UniProt Q4J7A2 1-431, looked up)
chain: MEIKTSVLVIGGGANGLFTALDLALRGIDVTLVERRDIGSGTSGRFHGLLHSGARYAVTDPESAKECIQENNIISKIAPHAIRDTGGLFLGITKEDLEFLDKFLSSLKKLGIEHKIVDNNQVLQEEPYVNKDLKIAIWVPDKVVYGYDLLSSIAVTGSLNKARIMTYNEVTEFIRDGNSIKGVKVFDKITNQMNLIKSDIIINTSGPWAFKIITMAGLEEIPILPTAGIMAVFGKKVNNAVLNRLRPPSDGDIIVPYQDTSILGTTATIIEDPDNFTISDEDVKMLIKEGSQLVPELSKTRVIRTYASVRPLMRTSEDGRKASRDFTILDHEREDGVSGLISIIGGKFTTSRLVGEKVGDLVSEKLGVRAKSKTKETKLISPSEIDFEKYLEKIGISKIFLKSVMERRGSLDEERYKTVLYLLLSLIARGR
B2: glycerol kinase Saci_2033 (enzyme, Sulfolobus acidocaldarius DSM 639, UniProt Q4J7A3 1-497, looked up)
chain: MAEKYVIAIDEGTTSARAIVFDKELNILGIGQNEFTQYYPQPGYVEHSPEEIWQAQLLAINKALEKAKIDRNNILSIGITNQRETTVMWDTRTGKPIYNAIVWQDRRTAPITDYLKANYLRLIKDRTGLVPDPYFSASKIKWILDNIPNAREKAEKGEIKFGTIDTYLIWKLTNGKAHVTDYSNASRTMLFNIRKLEWDREILEILNIPEAILPDVKPSSEIYGYAEILNSSIPISGDAGDQQAALFGQIAFNQGDVKCTYGTGSFILLNTGSNLVSSNDLLTTIAWGVGKGITYALEGSIFITGAAVQWFRDGLRAIDVSDEIEPLAGSVPDNGGVYFVPAFTGLGAPYWDPYARGLIIGITRGTTKAHIARAILESMAYQTMDVLGIMQRDSGIKIDALKVDGGASKNDLLMQFQADILKMKVVRPKIMETTSMGVAMLAGLSVGYWNSMDELKQKWKIDQVFEPKMDDEYREKLYSGWKEAVRRALGWAKTIGG
B3: glycerol kinase Saci_1117 (enzyme, Sulfolobus acidocaldarius DSM 639, UniProt Q4J9R1 1-498, looked up)
chain: MSKYILAVDEGTTSARALVFDEDLNVISIAQTELTQYFPRPGYVEQNPEEIFEKQVSMIKKAVEKAKIEISQVSAIGIANQRETTIMWDSRSGRPVYNAVVWQDRRTSDITDWLKSNYLNLFKSKTGLIPDPYFSASKIKWILDNVPGVREKAERGEIKFGTVDTYLIWKLTNGKVHVTDYSNASRTMLFNIKKLEWDRDILEILEIPEAILPEVRSSSEVYGYAEPVGNIPISGDAGDQQAALFGQLGFSKGDVKCTYGTGSFILMNSGEEIYDSKDLLTTIAWKIGKDVKYALEGSIFTTGAAVQWVRDGLGLVSSSDEIESLASSVVDNGGVYFVPAFSGLGSPYWDPYARGLIIGISRGTSRGHIARAVLESIAYQVRDVIEVIKKDVGKEFVNVLKVDGGVSKNNLLMQFQADILGIRIVRPRVIETTSMGASMLAGLAVDYWSSLEELKSKWAVDREFIPSLQEDRRERLYKGWKEAVRRTIGWAREVETME
B4: glycerol-3-phosphate dehydrogenase Saci_1118, N-terminally His-tagged (enzyme, Sulfolobus acidocaldarius DSM 639, UniProt Q4J9Q8 1-428, looked up)
chain: MKQNSSVIVIGGGATGLFTALDLSLRGINVTLVERGDIASGTSGKFHGLLHSGARYAVNDPESAKECKQENEVLSKIAPEFVRDTGGVFVGITEDDVNYSQRFLSALNSLGITNKVMDVEELIRREPFINKKSKIAIWVPDKVVYGYDLLATVALTASLNGAKILTYNEVKRVLREGNSVRRVEVKDNISGETKILNGDIIVNTAGPWAFRVIEMAGLGEIPLLPTAGIMVVMKEKLNSMVINRLRPPSDGDIIVPYGDSSIIGTTATIIPDPDNFEISDEDINMLIEEGAYMIPRLKEVKPERAYASVRPLIKNAEDGRGATRDFMIIDHEKVDSLDGLISVIGGKFTTSRLAGEKVSDMVSEKLGIREKSKTATIKLMSELDEKLLEKKRVPKVLVKMIRERKGSLDEDRYSTAMYILLSLLARGE

We go through 4 proteins from publication doi:10.1101/2024.02.29.582781 (bioRxiv, 2024).

The series deals with the molecule itself. Nature of the series: SEC. For orientation: SEC sorts molecules by how far they enter the pores of the column.
B1: the stoichiometry N (usually the number of molecules, sites or subunits per partner or assembly) worked out at 2.
Turning to B2, the “stoichiometry N” value was 2.
For B3, the “stoichiometry N” value came to 2.
The figure for B4 is 2.
